{"source": "patent US7754689B2", "about": "“Finger-1 peptide analogs of the TGF-β superfamily” (Wyeth LLC, priority 2006, dated 2010)", "type_in_all_cases": "binding", "key": {"[1]": {"molecular_target": "T1, BMP-3 (Homo sapiens, UniProt P12645)", "T1 construct": "a propeptide fragment copurifies along with the mature protein; made in house; host or cells: CHO cells (conditioned medium)", "T1 sequence (P12645 363-472)": "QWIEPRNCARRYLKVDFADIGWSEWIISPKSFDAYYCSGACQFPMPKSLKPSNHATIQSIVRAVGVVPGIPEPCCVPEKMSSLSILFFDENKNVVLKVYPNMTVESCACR", "assay": "Affinity column chromatography, capture and elution of BMP-3", "description": "(§1) BMP-12 was immobilized on NHS-activated Sepharose™ beads at a ratio of about 20 mg:4 mL and the resulting media combined with water or neutral saline buffer to prepare a column. CHO-conditioned media augmented with 1.2 M NaCl was loaded onto the column. In some cases, the media was preconcentrated with respect to BMP before loading. The column was washed with 15 CV (column volumes) of 1.2 M NaCl in 40 mM Na2HPO4 at pH 7.2, followed by 0.5 M arginine/0.5 M NaCl in 20 mM Tris at pH 7.5 (15 CV) and a low salt wash (50 mM ammonium acetate at pH 7, 15 CV). […] Finally, the column was eluted with 5CV of the acetic acid solution with 6M guanidine hydrochloride (GuHCl).\nThe eluate was analyzed using HPLC.\n4 mL of the resulting resin (1.6×2.0 cm) was used to prepare a column. The column was loaded with BMP-3 and eluted as in Example 1."}, "[2]": {"molecular_target": "T2, BMP-12 (Homo sapiens, UniProt Q7Z4P5)", "T2 sequence (Q7Z4P5 322-450)": "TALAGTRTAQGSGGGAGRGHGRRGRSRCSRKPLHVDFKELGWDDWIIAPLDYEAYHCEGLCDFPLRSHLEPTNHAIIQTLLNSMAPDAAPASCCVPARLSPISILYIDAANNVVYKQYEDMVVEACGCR", "assay": "Affinity column chromatography, capture and elution of BMP-12", "description": "as §1\nBMP-12 was loaded and eluted from a BMP-12 affinity column as in Example 1.\nBMP-12 was purified using a column prepared with the BMP-12 wild type peptide described in Example 7."}, "[3]": {"tested_on": "BMP-3 and BMP-12", "assay": "HPLC columns of BMP affinity resins loaded with BMP-3 and BMP-12", "conditions": "columns loaded with BMP-3 and BMP-12", "excerpt": "These columns were used loaded with BMP-3 and BMP-12. […] In some cases, size exclusion or reverse phase chromatography techniques were employed to enhance purification."}, "[4]": {"conditions": "washes, then gradient to 50 mM acetic acid pH 3, then 6M GuHCl"}}, "data": [{"molecule": "BMP-12: Bone Morphogenic Protein, member of the TGF-β superfamily; tested in solution and immobilized on Sepharose beads as affinity ligand (protein) TALAGTRTAQGSGGGAGRGHGRRGRSRCSRKPLHVDFKELGWDDWIIAPLDYEAYHCEGLCDFPLRSHLEPTNHAIIQTLLNSMAPDAAPASCCVPARLSPISILYIDAANNVVYKQYEDMVVEACGCR", "values": [{"measurement": "capture of BMP-3 by column with immobilized ligand", "setting": "[1]; CHO-conditioned media with 1.2 M NaCl (high salt) load", "value": "effectively captured"}, {"measurement": "elution of BMP-3 from column with immobilized ligand", "setting": "[1]; [4]", "value": "eluted with acetic acid"}, {"measurement": "capture of BMP-12 by column with immobilized ligand", "setting": "[2]; high salt / high ionic strength load", "value": "effectively captured"}, {"measurement": "elution of BMP-12 from column with immobilized ligand", "setting": "[2]; [4]", "value": "eluted with acetic acid and guanidine"}, {"measurement": "effectiveness as affinity ligand for reverse phase HPLC", "setting": "[3]", "value": "equally effective"}]}]}
